A word on the Kd: it is the equilibrium constant for the complex coming apart.

The record followed here is patent publication US20230052369A1 (Zymeworks, published 2023).

In experiment [1] the target is T1, purified human monomeric 4-1BB (human, UniProt Q07011 24-186).
T1 construct: the assay used the 4-1BB part released by Factor Xa with the Fc removed; also called h4-1BB; human 4-1BB
In words: SPR, Ab captured, monomeric 4-1BB injected.

Experiment [2] has as its target human 4-1BB, full-length, expressed on cells (human, UniProt Q07011 24-255). Kind of experiment: cell-based or functional assay.
The target of experiment [3] is T2, 4-1BB human (human 4-1BB ECD-TEV-IgG1 hinge-CH2-CH3-10x His) (human).
T2 construct: 4-1BB residues 24-186 fused to TEV site, IgG1 Fc and His tag; the entry is the whole fusion; also called soluble human 4-1BB-Fc
T2 sequence (chain, as listed by the source limits assumed): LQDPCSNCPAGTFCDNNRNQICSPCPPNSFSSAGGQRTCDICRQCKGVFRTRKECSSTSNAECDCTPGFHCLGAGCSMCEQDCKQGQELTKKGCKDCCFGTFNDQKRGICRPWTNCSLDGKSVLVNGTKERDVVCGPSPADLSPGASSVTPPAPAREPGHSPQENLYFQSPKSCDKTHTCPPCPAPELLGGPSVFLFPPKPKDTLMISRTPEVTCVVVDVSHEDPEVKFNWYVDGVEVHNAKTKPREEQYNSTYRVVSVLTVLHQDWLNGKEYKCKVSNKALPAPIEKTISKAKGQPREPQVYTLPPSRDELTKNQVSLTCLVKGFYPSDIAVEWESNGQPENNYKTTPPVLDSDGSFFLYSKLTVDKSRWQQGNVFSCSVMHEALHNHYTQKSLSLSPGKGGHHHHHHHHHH
Kind of experiment: ELISA, coated 4-1BB-Fc.

In experiment [4] the target is T3, Cyno 4-1BB-Flag, on HEK293-6e cells (Cynomolgus (Macaca fascicularis)).
T3 construct: also called Cynomolgus 4-1BB; CL#11070
T3 chain: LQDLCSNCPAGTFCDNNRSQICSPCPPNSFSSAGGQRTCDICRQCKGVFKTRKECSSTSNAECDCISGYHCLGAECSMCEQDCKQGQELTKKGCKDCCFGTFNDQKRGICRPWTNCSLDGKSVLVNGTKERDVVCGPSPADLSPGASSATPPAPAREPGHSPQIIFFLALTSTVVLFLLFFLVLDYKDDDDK
In words: CellInsight cell binding, transfected HEK293-6e.

The target in experiment [5] is T1, purified human monomeric 4-1BB. Kind of experiment: SPR, Ab captured, monomeric 4-1BB injected. The source holds these as a separate data set.
Experiment [6] addresses T4, full-length human FRα, on 293E cells (human, UniProt P15328 25-234).
T4 construct: also called folate receptor alpha; FOLR1
Kind of experiment: flow cytometry, 293E cells expressing FRα. (In flow cytometry, cells or beads pass a laser one at a time.)

Changes are numbered by the printed parent chain.

T1 sequence (Q07011 other isoform, or with tags, fused parts or gaps limits assumed): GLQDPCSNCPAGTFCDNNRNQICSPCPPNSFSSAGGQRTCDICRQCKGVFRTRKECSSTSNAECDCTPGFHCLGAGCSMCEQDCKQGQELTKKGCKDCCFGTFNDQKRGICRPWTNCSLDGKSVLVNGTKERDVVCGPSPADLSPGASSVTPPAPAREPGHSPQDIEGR
human 4-1BB, full-length, expressed on cells, sequence (Q07011 24-255): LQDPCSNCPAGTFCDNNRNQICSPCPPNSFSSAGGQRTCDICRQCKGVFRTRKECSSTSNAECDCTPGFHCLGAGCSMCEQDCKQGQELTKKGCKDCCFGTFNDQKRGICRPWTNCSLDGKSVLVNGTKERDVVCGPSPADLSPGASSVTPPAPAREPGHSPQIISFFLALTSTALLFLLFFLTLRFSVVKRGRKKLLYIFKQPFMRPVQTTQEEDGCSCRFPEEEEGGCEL
T4 sequence (P15328 25-234 limits assumed): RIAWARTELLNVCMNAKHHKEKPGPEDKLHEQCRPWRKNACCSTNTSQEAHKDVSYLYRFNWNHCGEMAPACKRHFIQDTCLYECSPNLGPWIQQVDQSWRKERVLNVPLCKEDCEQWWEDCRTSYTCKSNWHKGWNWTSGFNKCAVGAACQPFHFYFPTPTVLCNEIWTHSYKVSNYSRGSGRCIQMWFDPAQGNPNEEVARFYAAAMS

B1: v28695 (antibody, human IgG1, kappa, L234A L235A, V domains shown)
VH: QVQLQESGPGLVKPSETLSLTCTVSGFSLISYGVHWIRQPPGKGLEWIGVIWSGGSTDYNPSLKSRVTISVDTSKNQFSLKLSSVTAADTAVYYCARNPLTATVMDYWGQGTLVTVSS
VL: DIQMTQSPSSLSASVGDRVTITCRASQNVGTNVAWFQQKPGKAPKSLIYSASYRDSGVPSRFSGSGSGTDFTLTISSLQPEDFATYYCQQYNSYPLTFGGGTKVEIKR
notes: also called humanized 5G8 H1L1
Regarding B1, in experiment [1], the binding result is “no binding”.

B2: v16601 (bispecific antibody)
VH: EVQLVQSGAEVKKPGESLRISCKGSGYSFSTYWISWVRQMPGKGLEWMGKIYPGDSYTNYSPSFQGQVTISADKSISTAYLQWSSLKASDTAMYYCARGYGIFDYWGQGTLVTVSS
VL: SYELTQPPSVSVSPGQTASITCSGDNIGDQYAHWYQQKPGQSPVLVIYQDKNRPSGIPERFSGSNSGNTATLTISGTQAMDEADYYCATYTGFGSLAVFGGGTKLTVL
scFv: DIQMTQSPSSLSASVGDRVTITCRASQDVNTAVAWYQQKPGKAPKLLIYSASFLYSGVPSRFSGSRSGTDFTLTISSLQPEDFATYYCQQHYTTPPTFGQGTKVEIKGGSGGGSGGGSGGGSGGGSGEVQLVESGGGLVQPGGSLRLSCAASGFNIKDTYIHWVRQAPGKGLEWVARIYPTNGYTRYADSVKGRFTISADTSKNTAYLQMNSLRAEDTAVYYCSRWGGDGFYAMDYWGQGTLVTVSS
In the case of B2, in experiment [2], the “EC50 (pM), 4-1BB NF-kB-luciferase Jurkat reporter in co-culture with SKOV3” value (“EC50 (pM)” below) is 2620 pM and the “Max activity (RLU), 4-1BB NF-kB-luciferase Jurkat reporter” value (“Max activity (RLU)” for short) is 27900 RLU.

B3: v16605 (bispecific antibody)
VH: B2 VH
VL: B2 VL
scFv: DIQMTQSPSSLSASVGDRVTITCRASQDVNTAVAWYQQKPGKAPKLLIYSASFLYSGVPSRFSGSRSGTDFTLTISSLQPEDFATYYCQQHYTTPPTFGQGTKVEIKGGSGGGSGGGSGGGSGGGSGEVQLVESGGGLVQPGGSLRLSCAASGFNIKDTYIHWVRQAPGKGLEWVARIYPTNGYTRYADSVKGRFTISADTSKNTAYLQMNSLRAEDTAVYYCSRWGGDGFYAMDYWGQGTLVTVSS
As to B3, in experiment [2], the “EC50 (pM)” value came out at 401 pM and the “Max activity (RLU)” value is 92000 RLU.

B4: v20027 (antibody, human IgG1, kappa, L234A L235A, V domains shown)
VH: QVQLQQPGAELVRPGASVKLSCKASGYTFTSYWINWVKQRPGQGLEWIGNIYPSDNYTNYNQKFKDKATLTVDKSSSTAYMQLSSPTSEDSAVYYCTRGGGIYYENYFDYWGQGTTLTVSS
VL: QIVLTQSPAIMSASPGEKVTMTCSASSSVSYMHWYQQKSGTSPKRWVYDTSKLASGVPARFSGSGSGTSYSLTISSMEAEDVATYYCQQWSSNPPTFGGGTKLEIKR
notes: Mouse-human chimera; also called 3D7
For the molecule B4, the binding result in experiment [3] is reported as “no binding”.

B5: v28725 (antibody, human IgG1, kappa, L234A L235A, V domains shown)
VH: EVQLVESGGGLIQPGGSLRLSCAVSGFSLTTYAISWVRQAPGKGLEWLGIIWPGGGTNYADSVKGRFTISKDNSKNTLYLQMNSLRAEDTAVYYCARGAGTWYFDVWGQGTLVTVSS
VL: DIQMTQSPSSLSASVGDRVTITCSASQGISNYLNWYQQKPGKAPKLLIYYTSSLHSGVPSRFSGSGSGTDYTLTISSLQPEDIATYYCQQYSKFPWTFGQGTKLEIKR
notes: also called humanized 1C8 H7L2
On to B5, for which the binding result in experiment [1] is “no binding”.

B6: v28721 (antibody, human IgG1, kappa, L234A L235A, V domains shown)
VH: B5 VH with K71R
VL: B5 VL with Y71F, L73F, L104V
notes: also called humanized 1C8 H6L1
In the case of B6, the binding result in experiment [1] is on record as “no binding”.

B7: v28719 (antibody, human IgG1, kappa, L234A L235A, V domains shown)
VH: B5 VH with V24A, L48V, G49S, K71R
VL: B5 VL
notes: also called humanized 1C8 H5L2
With B7, the binding result in experiment [1] is listed as “no binding”.

B8: v28717 (antibody, human IgG1, kappa, L234A L235A, V domains shown)
VH: B5 VH with V24A, L48V, G49S, K71R
VL: B5 VL with Y71F, L73F, L104V
notes: FSA format, human IgG1/kappa; also called humanized 1C8 H5L1
Consider B8, for which the binding result in experiment [1] is reported as “no binding”.

B9: v28724 (antibody, human IgG1, kappa, L234A L235A, V domains shown)
VH: B5 VH
VL: B5 VL with Y71F, L73F, L104V
notes: also called humanized 1C8 H7L1
On to B9, for which the binding result in experiment [1] is listed as “no binding”.

B10: v28720 (antibody, human IgG1, kappa, L234A L235A, V domains shown)
VH: B5 VH with V24A, L48V, G49S, K71R
VL: B5 VL with A43T, P44V
notes: also called humanized 1C8 H5L3
On to B10, for which, in experiment [1], the binding result was “no binding”.

B11: v28722 (antibody, human IgG1, kappa, L234A L235A, V domains shown)
VH: B5 VH with K71R
VL: B5 VL
notes: also called humanized 1C8 H6L2
For B11, the binding result in experiment [1] is recorded as “no binding”.

B12: v28723 (antibody, human IgG1, kappa, L234A L235A, V domains shown)
VH: B5 VH with K71R
VL: B5 VL with A43T, P44V
notes: also called humanized 1C8 H6L3
B12: in experiment [1], the binding result is listed as “no binding”.

B13: v16675 (bispecific antibody, human IgG1, lambda, L234A L235A)
heavy 1: not shown
heavy 2: EVQLVQSGAEVKKPGESLRISCKGSGYSFSTYWISWVRQMPGKGLEWMGKIYPGDSYTNYSPSFQGQVTISADKSISTAYLQWSSLKASDTAMYYCARGYGIFDYWGQGTLVTVSSASTKGPSVFPLAPSSKSTSGGTAALGCLVKDYFPEPVTVSWNSGALTSGVHTFPAVLQSSGLYSLSSVVTVPSSSLGTQTYICNVNHKPSNTKVDKKVEPKSCDKTHTCPPCPAPELLGGPSVFLFPPKPKDTLMISRTPEVTCVVVDVSHEDPEVKFNWYVDGVEVHNAKTKPREEQYNSTYRVVSVLTVLHQDWLNGKEYKCKVSNKALPAPIEKTISKAKGQPREPQVYVYPPSRDELTKNQVSLTCLVKGFYPSDIAVEWESNGQPENNYKTTPPVLDSDGSFALVSKLTVDKSRWQQGNVFSCSVMHEALHNHYTQKSLSLSPG
light: SYELTQPPSVSVSPGQTASITCSGDNIGDQYAHWYQQKPGQSPVLVIYQDKNRPSGIPERFSGSNSGNTATLTISGTQAMDEADYYCATYTGFGSLAVFGGGTKLTVLGQPKAAPSVTLFPPSSEELQANKATLVCLISDFYPGAVTVAWKADSSPVKAGVETTTPSKQSNNKYAASSYLSLTPEQWKSHRSYSCQVTHEGSTVEKTVAPTECS
Turning to B13, in experiment [2], the “EC50 (pM)” value is 56.9 pM and the “Max activity (RLU)” value was 80900 RLU.

B14: v12592 (antibody, human IgG1, lambda)
heavy 1: EVQLVQSGAEVKKPGESLRISCKGSGYSFSTYWISWVRQMPGKGLEWMGKIYPGDSYTNYSPSFQGQVTISADKSISTAYLQWSSLKASDTAMYYCARGYGIFDYWGQGTLVTVSSASTKGPSVFPLAPCSRSTSESTAALGCLVKDYFPEPVTVSWNSGALTSGVHTFPAVLQSSGLYSLSSVVTVPSSNFGTQTYTCNVDHKPSNTKVDKTVEPKSCDKTHTCPPCPAPELLGGPSVFLFPPKPKDTLMISRTPEVTCVVVDVSHEDPEVKFNWYVDGVEVHNAKTKPREEQYNSTYRVVSVLTVLHQDWLNGKEYKCKVSNKALPAPIEKTISKAKGQPREPQVYVYPPSRDELTKNQVSLTCLVKGFYPSDIAVEWESNGQPENNYKTTPPVLDSDGSFALVSKLTVDKSRWQQGNVFSCSVMHEALHNHYTQKSLSLSPGK
heavy 2: not shown
light: B13 light with V135Y, L182I
notes: Control monospecific bivalent anti-4-1BB antibody, Het Fc; clones 2871, 4667, 2872; also called MOR7480.1-IG1; MOR7480.1
B14: the binding result in experiment [4] is on record as “binds”.

B15: v16679 (bispecific antibody, human IgG1, lambda, L234A L235A)
heavy 1: not shown
heavy 2: B13 heavy 2
light: B13 light
On to B15, for which, in experiment [2], the “EC50 (pM)” value was determined as 30.1 pM and the “Max activity (RLU)” value worked out at 131000 RLU.

B16: v23664 (bispecific antibody, human IgG1, kappa, L234A L235A)
heavy 1: QVQLQESGPGLVQPTQSLSITCTVSGFSLISYGVHWVRQSPGKGLEWLGVIWSGGSTDYNAAFISRLSISKDNSKSQVFFKMNSLQADDTAIYYCARNPLTATVMDYWGQGTSVTVSSASTKGPSVFPLAPSSKSTSGGTAALGCLVKDYFPEPVTVSWNSGALTSGVHTFPAVLQSSGLYSLSSVVTVPSSSLGTQTYICNVNHKPSNTKVDKKVEPKSCDKTHTCPPCPAPEAAGGPSVFLFPPKPKDTLMISRTPEVTCVVVSVSHEDPEVKFNWYVDGVEVHNAKTKPREEQYNSTYRVVSVLTVLHQDWLNGKEYKCKVSNKALPAPIEKTISKAKGQPREPQVYVYPPSRDELTKNQVSLTCLVKGFYPSDIAVEWESNGQPENNYKTTPPVLDSDGSFALVSKLTVDKSRWQQGNVFSCSVMHEALHNHYTQKSLSLSPGGGGGDIVMTQTPSSVSAAVGGTVTIKCQASQTIGSSLAWYQQKPGQPPKLLIYRASTLASGVSSRFRGSGSGTEYTLTISDLECADAATYYCQWTDYGYIYIWAFGGGTEVVVKGGGGSGGGGSGGGGSQEQLVESGGGLVQPEGSLTLTCTASKFSFSSLYYMCWVRQAPGKGLEWIACVYGGSSGNTYYASWAKGRFTISKASSTTVTLQLTSLTAADTATYFCARFDVDGSGFNLWGPGTLVTVSS
heavy 2: QVQLQESGPGLVQPTQSLSITCTVSGFSLISYGVHWVRQSPGKGLEWLGVIWSGGSTDYNAAFISRLSISKDNSKSQVFFKMNSLQADDTAIYYCARNPLTATVMDYWGQGTSVTVSSASTKGPSVFPLAPSSKSTSGGTAALGCLVKDYFPEPVTVSWNSGALTSGVHTFPAVLQSSGLYSLSSVVTVPSSSLGTQTYICNVNHKPSNTKVDKKVEPKSCDKTHTCPPCPAPEAAGGPSVFLFPPKPKDTLMISRTPEVTCVVVSVSHEDPEVKFNWYVDGVEVHNAKTKPREEQYNSTYRVVSVLTVLHQDWLNGKEYKCKVSNKALPAPIEKTISKAKGQPREPQVYVLPPSRDELTKNQVSLLCLVKGFYPSDIAVEWESNGQPENNYLTWPPVLDSDGSFFLYSKLTVDKSRWQQGNVFSCSVMHEALHNHYTQKSLSLSPG
light: DIVMTQSQKFMSTSVGDRVSVTCKASQNVGTNVAWYQQKPGQSPKALIYSASYRDSGVPDRFTGSGSGTDFTLTISNVQSEDLAEYLCQQYNSYPLTFGAGTKLELKRTVAAPSVFIFPPSDEQLKSGTASVVCLLNNFYPREAKVQWKVDNALQSGNSQESVTEQDSKDSTYSLSSTLTLSKADYEKHKVYACEVTHQGLSSPVTKSFNRGEC
notes: also called 5G8 x 1H06 (VLVH) 2x1
B16 had a Kd in experiment [5] of 220 nM. In addition, the binding result in experiment [6] is given as “binds”.
